The text below walks through data of publication PMC3663545, “Allosteric Activation of Trypanosomatid Deoxyhypusine Synthase by a Catalytically Dead Paralog*^([image sbox.jpg])^♦” (The Journal of Biological Chemistry, 2013).

One series has as its target T1, TbDHSc-TbDHSp (Trypanosoma brucei, UniProt Q38BX0+Q4GZD1).
T1 construct: gene DHSc; His6-SUMO-TbDHSc co-expressed with tagless TbDHSp in E. coli; SUMO tag cut with Ulp1, tag-free; 50 kDa + 37 kDa; 2:2 heterotetramer, 175 kDa
T1 sequence (Q38BX0 1-461): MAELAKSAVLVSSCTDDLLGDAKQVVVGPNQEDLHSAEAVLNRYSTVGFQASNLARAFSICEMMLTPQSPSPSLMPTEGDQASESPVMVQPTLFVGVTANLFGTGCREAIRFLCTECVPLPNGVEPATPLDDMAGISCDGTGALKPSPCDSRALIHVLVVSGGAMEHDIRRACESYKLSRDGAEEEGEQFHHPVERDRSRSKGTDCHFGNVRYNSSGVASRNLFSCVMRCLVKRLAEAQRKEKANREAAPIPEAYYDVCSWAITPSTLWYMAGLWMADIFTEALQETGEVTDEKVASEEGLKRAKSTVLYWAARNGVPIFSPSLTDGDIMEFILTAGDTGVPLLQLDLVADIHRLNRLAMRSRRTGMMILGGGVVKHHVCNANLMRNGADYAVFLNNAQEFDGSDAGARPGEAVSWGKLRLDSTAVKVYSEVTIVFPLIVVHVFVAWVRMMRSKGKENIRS
T1 sequence (Q4GZD1 1-342): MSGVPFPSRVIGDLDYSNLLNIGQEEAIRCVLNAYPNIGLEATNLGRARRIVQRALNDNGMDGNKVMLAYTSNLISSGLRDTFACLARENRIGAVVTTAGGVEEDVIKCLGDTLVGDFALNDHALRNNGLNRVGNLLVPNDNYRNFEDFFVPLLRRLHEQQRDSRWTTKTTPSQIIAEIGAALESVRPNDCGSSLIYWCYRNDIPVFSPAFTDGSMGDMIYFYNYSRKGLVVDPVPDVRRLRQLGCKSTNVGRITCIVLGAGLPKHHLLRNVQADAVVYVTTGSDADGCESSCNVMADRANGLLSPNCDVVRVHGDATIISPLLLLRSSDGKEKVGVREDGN
Put plainly: [3H]spermidine incorporation into eIF5A, nitrocellulose filter binding assay. The series is classed as biochemical. From the text:
[3H]spermidine incorporation into eIF5A, nitrocellulose filter binding assay on TbDHSc-TbDHSp | GC7 inhibited the activity of TbDHSc-TbDBHSp and the growth of BSF cells at similar concentrations

Substrate in series [1]: NC(=O)c1ccc[n+]([C@@H]2O[C@H](COP(=O)(O)OP(=O)(O)OC[C@H]3O[C@@H](n4cnc5c(N)ncnc54)[C@H](O)[C@@H]3O)[C@@H](O)[C@H]2O)c1
The series is described as above. It is filed as biochemical, Trypanosoma brucei. The note with it: 100 μM TbeIF5A, 100 μM spermidine, pH 9.3 glycine-NaOH, 37 °C, 1 mM DTT, varied: cofactor. The source says: (§1) [3H]spermidine incorporation into eIF5A, nitrocellulose filter binding assay on TbDHSc-TbDHSp

Substrate in series [2]: NCCCCNCCCN
The description is as above. It is filed as biochemical, Trypanosoma brucei. As to conditions: 1 mM NAD+, 100 μM TbeIF5A, pH 9.3 glycine-NaOH, 37 °C, 1 mM DTT, labelled compound.
Excerpt: as §1

In series [3] the target is T2, TbDHSc (T. brucei deoxyhypusine synthase, catalytic subunit), recombinant, expressed as His6-SUMO-TbDHSc (T. brucei, UniProt Q38BX0 1-461).
T2 construct: T. brucei deoxyhypusine synthase catalytic subunit (TbDHSc), TriTrypDB Tb927.10.2750; open reading frame cloned into pE-SUMO Kan; 50 kDa on SDS-PAGE; it was removed with Ulp1 before gel filtration and sedimentation velocity; not shown: His6-SUMO, N-terminal, cleaved
T2 sequence (looked up): T1 sequence (Q38BX0 1-461)
Put plainly: AUC; sedimentation velocity of the purified TbDHSc-TbDHSp complex at A280 0.7, 0.2 and 0.05 in 50 mM Hepes, 150 mM NaCl, pH 8.0; 20 °C, 40,000 rpm; interference data analysed with SEDFIT c(s). The note with it: both partners purified.

For the molecule `N=C(N)NCCCCCCCN` [GC7], the concentration for half-maximal inhibition (IC50) on TbDHSc-TbDHSp is 1500 ± 150 nM.

B1: TbDHSc-TbDHSp (Trypanosoma brucei brucei TREU927) (protein)
chain 1: T1 sequence (Q38BX0 1-461)
chain 2: T1 sequence (Q4GZD1 1-342)
notes: His6-SUMO-TbDHSc co-expressed with tagless TbDHSp in E. coli; SUMO tag cut with Ulp1, tag-free; 50 kDa + 37 kDa; 2:2 heterotetramer, 175 kDa
Take B1: in series [1], the Km was 82 ± 16 µM and the kcat is 0.018 ± 0.001 s⁻¹. Besides, in series [2], the Km was 43 ± 5 µM and the kcat amounted to 0.015 ± 0.001 s⁻¹.

B2: TbDHSp (T. brucei deoxyhypusine synthase prozyme (activating) subunit), recombinant, untagged (natural protein, UniProt Q4GZD1 1-342, looked up)
chain: T1 sequence (Q4GZD1 1-342)
notes: T. brucei deoxyhypusine synthase prozyme subunit (TbDHSp), catalytically dead paralog, TriTrypDB Tb927.1.870; open reading frame cloned untagged into the HindIII-KpnI site of pT7-FLAG-MAT-Tag-2 with a stop codon inserted; 37 kDa on SDS-PAGE; the vector's C-terminal tag was removed by insertion of a stop codon; also called tagless TbDHSp; untagged TbDHSp
Turning to B2, the “stoichiometry N” value in series [3] is 1 TbDHSp per TbDHSc (2:2 heterotetramer).

As a reminder, the IC50 is the concentration that inhibits the measured activity by half. As usually defined, the Km is the substrate concentration at which the rate is half of its maximum. Usually kcat stands for the maximal rate divided by the concentration of active sites. In general, stoichiometry N refers to the number of molecules, sites or subunits per partner or assembly.
